Data reported in patent US20160053277A1, “Compositions Having Dicamba Decarboxylase Activity and Methods of Use” (PIONEER HI-BRED INTERNATIONAL, INC., priority 2013, published 2016).

B1: 89 (protein, listed as Erwinia billingiae)
chain: MATNRRDFLKNATAVMAGSTVFAGSSHFASAAAVEPAAVQPPRRIIALEEHFMLPEFVGYLHETQQNLRNGLVDKVVTPLSDFGKGRLEIMDKNGVDFAVLSLSGPGVQAEPDRVKAVRLARYANDKLATEMQKNPRRYGGFAHLAMQDPLAAANELERCVKQLHMQGGMINGETDGLYLDDRRYDVFWERVEALNVPIYIHPGNPPDYPHMFAGHPEMWGPVWSWAVETCSHALRLIFSGTFDRYPGARVILGHMGETLPIQLWRLDSRYQIANQTFAIKHPPSWYAKKNITITTSGVCNDAALRCALDSMGSENVMFSIDYPFESTEIAVNWLKTANITEQERNAVAWGNATSILRLGA
B2: 81 (protein, listed as Verticillium dahliae)
chain: MAASTKPKVVDIHTHMYPPSYIDILTSRTAIPVVRTFPQAADPRLILLDAEQQALDAALQDPTAKPPGRPLTSHYASLDQKIHFMDTHSIDISVVSLANPWLDFIEPKEAAATARSVNDEFEAMCASQPGRLFFFAALPLTAPLPALLEAVRHVAELEHCRGVILGTSGLGSGLDDPELVPVLEAVAAAALTVFLHPHYGLPNDVWGPRASAEYGHVLPLALGFPMETTIAVARMYLAGVFDRVPALRMLLAHSGGTLPFLAGRIESCILHDGQLVAEGKVGAARRTIWDVLREQVYLDAVIYSEIGLKAAIAASGGADRLMFGTDHPFFPPLGTDEQAKKESRINAGGSRPMITGNAMINGHGGLCNHITQSDYQDVVL
B3: 57 (protein)
chain: MAKLICVEEHVLDPAVGAATQSLVRAEAPYLPDWGSRVLDGRHVADRSRPHVIAPSESARKALEMGEPRLADMDAASIDMQVLSYGGFPQLLPAAQAIDLNRAANDKLALAAQAHPARFAGFATLPWQAPEAAARELERAVKQLGLKGALINGRPGDTFLDDARYAPILAAFDELKVPLYVHPGLPLPAVQAPYYGGFERELSARLAMFAWGWHNEAGIQVVRMLLAGVFDRHPRLQLISGHWGEMVPFFLQRLEDSIPQEASGLQRPIVQTYREHVYISPSGMFTLPHFQFIHALMGAQRILYSIDYPYQSLDGARAFIERLPISDTDKALIAHRNAERLLHL
modifications: Collimonas fungivorans
B4: 56 (protein)
chain: MAKIICLEEHYLDSELGRACMPVALEQAPFLGDWGKTVADGHNPDRSRPQIEKNALINAKGADLGSRRLRDMDEAGITLQILSVGGFPQLAPEDEAVTLNTAANDRLAEAVRNHPDRFAAFATLPWAQPKDAENELVRAVEKLGFKGALLNGRPSSCFLDHPDYDSLLSRFNKLNVPLYLHPGLPLKSVQQAYFTGFSAEVNARLSMFGWGWHHEAGIHLLRLMLSGAFDKYPNMQVISGHWGEMLPFWLQRLDDSLPLAATGLSRTLTRTFQEHVYVTPSGMLTLPHFKFIYELMGAERILFSVDYPYQTLDGVKTFIDSLPVNKAEKEAIAFRNAERLLGITA
modifications: Enterobacter aerogenes
B5: 88 (protein, listed as Starkeya novella)
chain: MARKIALEEHFTTPELAGKYVARPTQSDALFADIERRLADFDELRLEMMDRAEIDLMVLSVTTPGVQGVRDTGEAIRLARGANDFLAREVQKRPSRYAGFAHLAMQDAEAAATELERAVRELGFRGALINGQTNGHYLDEDQYAPFWERVQELDVPVYLHPGNMADSPAMFAHRPELGGPIWAWTAETAAHALRLVFGGTFTRFPGAKVILGHMGETLPFLLWRLDSRREFDLGEKLAPDALPSAIIKRNIAVTTSGVCDPAPLVAALQALSDDNVMFSVDYPYEDPQLASKFIETAPIGEETRAKVCHGNAERLLGL
B6: 108 (protein, listed as Staphylococcus aureus)
chain: MAKSITFEEHYVIEDIQKETMNAISADPKGVPMKVMLEGLEKKTGFTNADELSHHDERIQFMNNQDVQIQVLSYGNGSPSNLVGQKAIELCQKANDQLANYIAQYPNRFVGFATLPINEPEAAAREFERCINDLGFKGALIMGRAQDGFLDQDKYDIIFKTAENLDVPIYLHPAPVNSDIYQSYYKGNYPEVTAATFACFGYGWHIDVGIHAIHLVLSGIFDRYPKLNMIIGHWGEFIPFFLERMDEALFAEHLNHSVSYYFKNSFYITPSGMLTKPQFDLVKKEVGIDRILYAADYPYIEPEKLGVFLDELGLTDEEKEKISYTNGAKLLGLSSNN
B7: 79 (protein)
chain: MATTTTPSTLIATLESHLTPTLAFTSPTTSPTQPALHLIPPTTLTKLRNLGPGRVKDMHMLGHSRQIISHIPVAAPPQICSRFNDAIHAATMTNTAKFSVLAVLPTDGMEAAKELARCVSKYRFVGGVIGLNRGLRINGEGWEELWGLAERLRIPIMFREMWPLAFEIVDYQHHLPYSALGPILTQLHTSHTSSPLPLVRLYLSSVFDHYPSLRLVLAHPGSLPSLVPRIESLINSIPATDKPKRSFLDVWQHNIYLTTADAQDMSSLRALLEQIPVDRVLYASNYPFEERGNELMNELRESEFLTNIEWERVAWVNAETLFNLKEAGTKEARQLTTIPSSRS
modifications: Pyrenophora teres
B8: 58 (protein)
chain: MARVIALEEHYATTEFLRGPGTWLASRPGIVEPAGDLGDGRIAAMDQAGVDLAVLSLAAPGVEQLDPDDAVRLARDCNDQLAAAVRRYPDRLAGFATVPTSAPDRAADELERAVRGLGFPGAVINGHSRGRYLDDPFFEPVLARAAELQAPIYLHPTIPPAGVIESSYAGFAEPVTFALATVGWGWHINTATHALRMILGGVFDRHPSLQMIIGHMGEATSFMLPRFDATLKPELTGLNHPVSSYLRENFHYTFANFNDHATYANLVAQVGIERVAFSADYPFGSMVDARAFLDGLPLSDDERAAISHRNAEKLLGL
modifications: Mycobacterium colombiense
B9: 4 (protein, listed as Lactobacillus buchneri)
chain: MAKVITLEEHFSSQKLGQKMAEVLPKRPIGNVSPKMQDYMQRSLPPEAELEDVTGSRIQWMDQHQISMQILSYGNQNPQNSDPKFAVELTKLANDELAKAVAKAPDRFRAFASLPVSHPTDAAAELKRGVEELGFKGAMLVRPTSQAHPFFDDPFYLPIFEAAANLNVPVYLHPSFPDSQIIDYYYSNGPWDDKVSGILGTAGYGWHTDVGIQTVRLLLSGVFEKYPNLKLISGHWGEFASFALERMDQVMYPETNLSEPISKIYRDHVYVTPSGILTEPQLKFVKDEVGIEHLLYSIDYPYIKPENSGSFIESSPLTDEEKELFAHGNAEKLLQL
B10: 87 (protein, listed as Novosphingobium sp.)
chain: MASDIATAADLQTGGRQGYLRIATEEAFATRDQIDVYLRMVRDGTADRGMTSLWGFYAQSPSARATQIIERLLDLGEQRLADMDAAGIDKAVLALTSPGVQPLLDMEEARRIAGNANDRLAERCAAHPDRFIGMTAVAPQDPQWSAREILRGATQLGFKGVQINSHTQGRYLDEPFFDPIFRALGDVGQPLYIHPGTPPDSMIGPLLDAGLDGAIYGFGVETGMHLLRLITAGIFDRYPDLQIMVGHMGEALPYWLYRLDYMHQAGIRSQRYERMRPLKRTIAGYFRSNVLVTCSGMAWEPAIQFARQVMGEDRVMYAMDYPYQYEADEVRALDVMDLSPESKRKFFQTNAERWFDL
B11: 55 (protein, listed as Serratia sp.)
chain: MAKIICLEEHTLDKALVMASMPAALEQAPFLSDWGKTVTDGNLPDRSRPQIEKNDLINIKGADIGRGRLDDMDVAGITMQVLSVGGFPHLISAAEGVDLNRAANDRLADAVNAHPDRFAAFATLPWAQPDSAEKELERAVKELGFKGALLNGRPSTHFLDHPDYDGLLARFNALGVPLYLHPGLPVRSVQQAYYGGFSDEVTARLSMFGWGWHHEAGIHLLRLILSGAFDKYPNLQVISGHWGEMLPFWLQRLDDSLPQAATGLRRTIAQTFKEQVYVTPSGMLTLPHFQFIYALLGAERIIFSVDYPYQTLDGVKAFIQSLPVPEEAKEAIAFRNAERLLGLTS
B12: 92 (protein, listed as Chitinophaga pinensis)
chain: MARIVTLEEHVSFPEMTALLPEEILKNRKQSGAALQMQEKLADITGERLTSMKAAGISMQVLSVENTDVYLLPDSLAPAFAAKYNDLLADKISSHSDAFAAFAMLPMTVPEAAADELERAVKTHGFCGAMIKGLINGVFLDAPKFAPVFACAEKLGVPLYIHPGIPPKEVIDAYYSNVGDTKGPNEAIACYGWGWHSETAIHILRLLAAGIFDKYPQLNIIIGHMGEMLPMMWERSNRVFQPGNNGKNQRTLIETFRKQLYITTSGIFTQPPLQIAIDTIGIDNILFSIDYPFSSNQMGIDFLTKAALPAEQLAKMAHGNADRILKF

Assay: 14C assay with IPTG-induced recombinant E. coli cells: 14CO2 captured from [14C]-carboxyl-labeled dicamba
Settings: among the 108 sequences tested, recombinant E. coli cells
For B1, the “decarboxylation activity of dicamba” value was “showed decarboxylation activity of dicamba”. For B2, the “decarboxylation activity of dicamba” value was “showed decarboxylation activity of dicamba”. For B3, the “decarboxylation activity of dicamba” value was “showed decarboxylation activity of dicamba”. With B4 the “decarboxylation activity of dicamba” value was “showed decarboxylation activity of dicamba”. In the case of B5, the “decarboxylation activity of dicamba” value is reported as “showed decarboxylation activity of dicamba”. For B6, the “decarboxylation activity of dicamba” value was “showed decarboxylation activity of dicamba”. In the case of B7, the “decarboxylation activity of dicamba” value is reported as “showed decarboxylation activity of dicamba”. In the case of B8, the “decarboxylation activity of dicamba” value is reported as “showed decarboxylation activity of dicamba”. For B9, the “decarboxylation activity of dicamba” value was “showed decarboxylation activity of dicamba”. With B10 the “decarboxylation activity of dicamba” value was “showed decarboxylation activity of dicamba”. For B11, the “decarboxylation activity of dicamba” value was “showed decarboxylation activity of dicamba”. With B12 the “decarboxylation activity of dicamba” value was “showed decarboxylation activity of dicamba”.

Same assay, conditions: dicamba decarboxylation activity of the protein of the given SEQ ID NO; High / Low / No
In the case of B1, the “Enzymatic Detection level” value is reported as “High”. In the case of B2, the “Enzymatic Detection level” value is reported as “High”. For B3, the “Enzymatic Detection level” value was “High”. With B4 the “Enzymatic Detection level” value was “High”. With B5 the “Enzymatic Detection level” value was “High”. In the case of B6, the “Enzymatic Detection level” value is reported as “High”. In the case of B7, the “Enzymatic Detection level” value is reported as “High”. For B8, the “Enzymatic Detection level” value was “High”. In the case of B9, the “Enzymatic Detection level” value is reported as “High”. In the case of B10, the “Enzymatic Detection level” value is reported as “High”. For B11, the “Enzymatic Detection level” value was “High”. In the case of B12, the “Enzymatic Detection level” value is reported as “High”.

Same assay, conditions: induced recombinant E. coli cells, [14C]-carboxyl-labeled dicamba, 14CO2 capture
In the case of B1, the “Dicamba Decarboxylase Activity” value is reported as “High”. For B2, the “Dicamba Decarboxylase Activity” value was “High”. For B3, the “Dicamba Decarboxylase Activity” value was “High”. For B4, the “Dicamba Decarboxylase Activity” value was “High”. In the case of B5, the “Dicamba Decarboxylase Activity” value is reported as “High”. In the case of B6, the “Dicamba Decarboxylase Activity” value is reported as “High”. With B7 the “Dicamba Decarboxylase Activity” value was “High”. With B8 the “Dicamba Decarboxylase Activity” value was “High”. With B9 the “Dicamba Decarboxylase Activity” value was “High”. For B10, the “Dicamba Decarboxylase Activity” value was “High”. With B11 the “Dicamba Decarboxylase Activity” value was “High”. In the case of B12, the “Dicamba Decarboxylase Activity” value is reported as “Yes”.

Assay: Saturation mutagenesis of SEQ ID NO:109: dicamba decarboxylation activity of point mutants (carbon dioxide released)
Settings: decarboxylation activity (carbon dioxide released) of point mutant compared with unmutated backbone protein; backbone SEQ ID NO: 109
In the case of B1, the “Fold Activity” value is reported as 3.1. With B2 the “Fold Activity” value was 1.2. In the case of B3, the “Fold Activity” value is reported as 2. For B4, the “Fold Activity” value was 1.3. In the case of B5, the “Fold Activity” value is reported as 1.3. For B6, the “Fold Activity” value was 1.6. With B7 the “Fold Activity” value was 0.9. For B8, the “Fold Activity” value was 1.5. In the case of B9, the “Fold Activity” value is reported as 1. With B10 the “Fold Activity” value was 1.4. With B11 the “Fold Activity” value was 1.5. With B12 the “Fold Activity” value was 1.7.
